Test results taken from patent US20240400698A1, “ANTI-CHEMOKIN LIKE RECEPTOR 1 ANTIBODIES AND THEIR THERAPEUTIC APPLICATIONS” (OSE IMMUNOTHERAPEUTICS, priority 2018, published 2024).

How the values were obtained:
[1] = test system: mice, peritonitis induced by Zymosan A; test: Zymosan A peritonitis model (sepsis); type: in vivo; details: preventive injection, vs isotype control
Experimental: FIG. 7. […] Preventive injection of anti-CMKLR1 was performed before Zymosan A injection (1 mg per mouse in 1 mL): RvE1 (1 μg per mouse) (•), 2G1 antibody (10 μg per mouse) ( ) or isotype control antibody (x). A. PMN numbered during the first 50 hours after Zymosan A injection. B. Macrophages numbered during the first 50 hours after Zymosan A injection. C. Resolution index.
Common peritonitis is induced by intraperitoneal injection of Zymosan A® (1 mg per mouse in 1 mL). Preventive injection of anti-CMKLR1 was performed 5 minutes before Zymosan A injection: RvE1 (1 μg per mouse), 2G1 antibody (10 μg per mouse). Murine peritoneal polymorphonuclear neutrophil (PMN) and macrophages were collected at 2-4-8-16-24 and 48 h after Zymosan A injection and numbered by flow cytometry analysis to determinate the resolution index (Bannenberg et al., 2005).

[2] = test system: IL-10KO mice, spontaneous colitis; test: IL10-KO spontaneous chronic colitis model; type: in vivo; details: 25 μg/injection i.p., 3 times a week, vs isotype control
Experimental: FIG. 4. […] Mice KO for IL10 develop a spontaneous inflammatory colitis. They were treated with an Anti-CMKLR1 antibody (2G1) ( ) or isotype control (hIgG1) (x) intra-peritoneally (25 μg/injection, 3 times a week). A. Animal weight loss during and after treatment. B. Animal score stool.
IL-10KO mice develop a spontaneous colitis from 20 weeks of age mostly due to the absence of regulatory T cells function through IL-10 secretion in the intestine. IL-10KO mice were followed-up three times a week from 18-week old for their weight loss and stool consistency which are clinical hallmarks of this pathology.

[3] = molecular target: T1, CMKLR1 EL3 loop (SEQ ID No: 18) (Homo sapiens, UniProt Q99788); test: ELISA binding on CMKLR1 peptide; details: OD at 450 nm, FIG. 12, vs isotype control
T1 sequence (Q99788 275-307 limits assumed): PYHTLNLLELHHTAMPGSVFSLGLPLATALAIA
Experimental: FIG. 12. Binding analysis of the anti-CMKLR1 antibody on a CMKLR1 peptide by ELISA. The binding of the 2G1 antibody ( ) on the CMKLR1 EL3 loop (SEQ ID No: 18) was compared to the isotype control antibody (3G8) (x) by measuring the OD at 450 nm by ELISA.
CMKLR1 peptide (273NH2-[…]-COOH305) (SEQ ID No: 18) (5 μg/ml) was coated in borate buffer overnight. Saturation was performed with PBS-Tween 0.1%-Gelatin 0.25% for 2 hours at 37° C. Then, 2G1 or hIgG1 antibodies were added at different concentrations for 2 hours at 37° C. […] The colorimetric reaction was read with TECAN.

[4] = test system: C57BI/6 male mice, colitis induced by DSS; test: Acute inflammatory colitis model induced by DSS; type: in vivo
Experimental: FIG. 2. […] Mice were injected after 6 days of DSS induction with isotype control hIgG1 (10 μg per mouse) (x), RvE1 (1 μg per mouse) daily (•), or 2G1 antibody (10 μg per mouse) three times ( ) for 5 days. Wild type mice, not treated, are represented by an ▾. A. Animal weight loss. B. Animal stool score C. Colon length. D. Resolution index.
Colitis was induced in 8-10 weeks-old-C57BI/6 male mice by adding 2% (wt/vol) of DSS to the sterile drinking ad libitum water for 6 days. Treatments were injected intra-peritoneally: Isotype control hIgG1 (10 μg per mouse), RvE1 (1 μg per mouse) daily, or 2G1 antibody (10 μg per mouse) three times for 5 days. Colitis follow-up consisting of body weight and stool score (0: normal stool; 4: blood in stool) parameters were performed daily. When mice were euthanized, colon length representing the pathology severity was measured. Resolution index was determined in the different conditions as described in Bannenberg et al., 2005.

Mice dendritic cells = test: Maturation and differentiation of mice bone marrow derived dendritic cells, activation markers and viability by FACS; type: cell-based
Experimental: FIG. 1. Effect of the anti-CMKLR1 variants 1G1, 2G1, 3G1 and 4G1 chimeric antibodies on the DCs maturation and differentiation. Mice dendritic cells were incubated during maturation phase (24 h or 48 h) followed by a differentiation phase with excipient or RvE1 or anti-CMKLR1 antibodies variants (mutations on positions 1 and 2 of SEQ ID No. 8, corresponding to the VH-CDR3: 1G1 (LL), 2G1 (LI), 3G1 (IL) or 4G1 (II) or isotype controls (hIgG1 or mIgG)). Cells were then stained for FACS analysis with cell marker antibodies: A. CD80-PE; B. CD86-FITC; C. CD103-PerCPCy5.5; D. I/Ab-APC. Mean of Fluorescence was determined in each condition. E and F represent the viability of the cells measured by FACS using LIVE/DEAD® kit from Life Technologies in each condition after 24 or 48 hours of maturation respectively.
FIG. 17. Study of the myeloid cell activation markers after CMKLR1 pathway activation. Dendritic cells incubated in excipient, RvE1, 2G1 or isotype control (hIgG1) were then stained for FACS analysis with marker antibodies: A. CD80-PE. B. CD86-FITC. C. CD103-PerCPCy5.5. D. CD40-PeCy7. E. I/Ab-APC. Mean of Fluorescence was determined in each condition.
Bone marrow cells were harvested and cultured in RPMI medium supplemented with 10% FBS, glutamine and antibiotics and the dendritic cell differentiation was induced by GM-CSF at 20 ng/ml for 7 days. Then, immature dendritic cells (iDC) were collected and cultured for 24 hours with LPS (100 ng/ml) to induce the maturation from iDC to mDC. Treatments were added during differentiation and maturation at 2 μg/ml.
Dendritic cells were resuspended in PBS-FBS-EDTA and incubated with live and dead (LIVE/DEAD® Fixable Dead Cell Stains Yellow-Life Technologies) for 30 minutes on ice. Staining of CD11c-BV711, CD11b-APCCy7, I/Ab-APC, CD103-PerCPCy5.5, CCR7-V450, CD40-PeCy7, CD80-PE, CD86-FITC (all provided by BD Pharmingen) were performed.

Hepa 1.6 cells = test: Orthotopic hepatocarcinoma (HCC) model, overall survival; details: FIG. 22; Hepa 1.6 HCC model; anti-CMKLR1 0.8 mg/kg, anti-PD1 8 mg/kg; followed sixty days
Experimental: Effect of an anti-CMKLR1 antibody on an Hepatocarcinoma mice model (HCC model). […] Isotype control antibody was used at 0.8 mg/kg three times a week for 2 weeks. Mice response were considered partial (PR) when mice survive few days to 1 month after stop of treatment or complete (CR) when mice survive over 1 month or cured when they survive three times longer than the time necessary to all control mice dye.
Method: Mice were anesthetized with a cocktail of xylazine/ketamine. After a laparotomy, tumoral Hepa 1.6 cells were injected in PBS through the portal vein (2.5·10^6 cells/100 μL) in PBS. The treatment was started 4 days after tumor injection. The anti-CMKLR1 antibody (2G1clone) and the hIgG1 istotype control were injected at 0.8 mg/kg three times per week during 2 weeks. The anti-PD1 monoclonal antibody was injected twice a week during 2 weeks intraperitoneally in PBS (8 mg/kg). Combination anti-CMKLR1 and anti-PD1 antibodies was tested as well (0.8 mg/kg and 8 mg/kg respectively).

B1: 2G1: chimeric anti-CMKLR1 antibody, murine variable regions (SEQ ID No: 10 and 17), human IgG1 constant regions; VH-CDR3 variant LI (antibody, V domains shown)
VH: METDTLLLWVLLLWVPGSTGDEVQLVASGGGLVQPGGSLKLSCAASGFTFSSYGMSWVRQTPDRRLELVATINRYGGSTYYPDSVKGRFTISRDNAKNTLYLQMSSLKSEDTAMYYCPRLIYYGNEGDSWGQGTTLTVSS
VL: METDTLLLWVLLLWVPGSTGDQIVLTQSPAIMSASPGEKVTMTCSASSSVSFMHWYQQKSGTSPKRWIYDTTKLTSGVPARFSGSGSGTFYSLTISSMEAEDAATYYCQQWNSKPPLTFGPGTKLELKR
modifications: human IgG1 constant regions
notes: VH-CDR3 variant LI
- PMNs number ([1]; FIG. 7A): slightly less
- macrophages number ([1]; FIG. 7B): slightly less
- resolution index ([1]; FIG. 7C): better resolution index
- percentage of weight loss ([2]; FIG. 4A): lost less weight
- score stool ([2]; FIG. 4B): better score stool
- binding to the polypeptide forming the loop EL3 of CMKLR1 [3]: able to bind the polypeptide forming the loop EL3 of CMKLR1
- overall state of the animals ([4]; 10 μg per mouse i.p. three times, vs control antibody or RvE1): better overall state
- weight loss ([4]; FIG. 2A, 10 μg per mouse i.p.): lost significantly less weight
- score stool ([4]; FIG. 2B, 10 μg per mouse i.p.): significantly better
- level of detection of DCs expressing CD103 and IAb (Mice dendritic cells; FIG. 1, FACS, compared with C7 antibody): lower than DCs cells treated with C7 antibody
- DCs activation and/or maturation towards a pro-inflammatory pathway (Mice dendritic cells; FIG. 1, mice dendritic cells, maturation 24 h or 48 h): inhibit DCs activation and/or maturation in a stronger manner than other synthetized antibodies (3G1 and 4G1)
- expression of CD80, CD86, CD103, CD40 and IAb (DC activation markers) (Mice dendritic cells; FIG. 17, FACS, compared to the excipient or isotype control): strong decrease
- viability of cells (Mice dendritic cells; FIGS. 1E and 1F, LIVE/DEAD kit, after 24 or 48 hours of maturation, compared with other antibodies, C7 or Resolvin E1): enhanced
- survival rate (Hepa 1.6 cells): 15%
